Assay results from patent publication US20100047230A1 (HELLENIC PASTEUR INSTITUTE, published 2010).

Assays:
Assay in all cases: ELISA on coated antigen
human serum albumin = biological target: T1, human serum albumin (human, UniProt P02768 25-609)
T1 construct: Irrelevant antigen control, produced in P. pastoris; also called HSA

alpha1-ECD of human AChR = biological target: T2, alpha1-ECD of human AChR (human, UniProt P02708 21-230, limits assumed)
T2 construct: extracellular domain; Irrelevant antigen control; also called α1-ECD; α1-AChR
T2 sequence (P02708 21-230 limits assumed): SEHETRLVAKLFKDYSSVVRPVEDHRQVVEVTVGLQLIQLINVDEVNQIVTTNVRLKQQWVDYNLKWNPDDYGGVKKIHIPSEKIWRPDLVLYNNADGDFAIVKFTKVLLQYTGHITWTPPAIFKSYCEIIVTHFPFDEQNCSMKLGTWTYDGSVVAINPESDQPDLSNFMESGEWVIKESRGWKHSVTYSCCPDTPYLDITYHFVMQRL

bovine serum albumin = biological target: T3, bovine serum albumin (bovine, UniProt P02769 25-607)
T3 construct: Irrelevant antigen control; also called BSA
T3 sequence (P02769 25-607 limits assumed): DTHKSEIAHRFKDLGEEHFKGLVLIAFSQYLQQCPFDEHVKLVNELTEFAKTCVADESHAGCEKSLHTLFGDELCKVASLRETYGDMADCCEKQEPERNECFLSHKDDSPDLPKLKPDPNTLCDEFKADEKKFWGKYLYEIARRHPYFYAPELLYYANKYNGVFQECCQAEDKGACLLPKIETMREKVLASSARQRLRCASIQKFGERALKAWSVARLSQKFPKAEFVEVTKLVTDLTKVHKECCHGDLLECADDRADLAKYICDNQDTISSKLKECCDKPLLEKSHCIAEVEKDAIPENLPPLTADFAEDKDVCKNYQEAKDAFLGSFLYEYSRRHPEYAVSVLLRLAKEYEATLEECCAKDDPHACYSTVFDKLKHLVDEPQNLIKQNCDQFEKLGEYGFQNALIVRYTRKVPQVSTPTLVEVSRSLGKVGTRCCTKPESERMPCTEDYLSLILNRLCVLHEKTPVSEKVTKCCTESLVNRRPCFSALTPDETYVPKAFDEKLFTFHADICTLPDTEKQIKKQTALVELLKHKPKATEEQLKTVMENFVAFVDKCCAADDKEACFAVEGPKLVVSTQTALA

B1: Fab63 (Fab, V domains shown)
VH: EVQLLEWGPGLVKPSGTLSLTCAVSGGSIRDSNWWGWVRQPPGKGLEWIGEIYHSGTTNYNPSLKSRVTISVDKSKNQFSLNLSSVTAADTAVYYCAREDCSYGSCYFDYWGQGTLVTVSS
VL: ELTLTQSPSSLSASLGDRVTIRCRASQSISAALNWYQQKPGKAPKLLIHDVSTLQSGVPARFSGGGSETDFTLTISSLQPEDFATYYCQQSYRVPLTFGGGTRLEIK
notes: Fully human soluble Fab made in E. coli from pComb3H; Heavy chain is an Fd of the gamma1 isotype (VH-CH1), light chain is kappa (VL of the K subgroup, with Ckappa); also called human Fab 63; clone 63
B1: no binding (tested: antigen coated at 10 µg/ml) (human serum albumin); no binding (tested: antigen coated at 10 µg/ml) (alpha1-ECD of human AChR); no binding (tested: antigen coated at 10 µg/ml) (bovine serum albumin).
